The source of these data is patent US20210221849A1 (MIRABIOLOGICS, published 2021).

For assay [1], the target named is T1, plexin B1-PA (extracellular region of human plexin B1 with a PA tag at the C terminal) (human, UniProt O43157 20-1490).
T1 construct: extracellular domain; Soluble receptor fragment expressed in Expi293F cells; Culture supernatant in the pulldown tests, purified for the sandwich tests; also called hPlexB1; plexin B1-BA; not shown: PA tag (Wako Pure Chemical Industries)
T1 sequence (looked up): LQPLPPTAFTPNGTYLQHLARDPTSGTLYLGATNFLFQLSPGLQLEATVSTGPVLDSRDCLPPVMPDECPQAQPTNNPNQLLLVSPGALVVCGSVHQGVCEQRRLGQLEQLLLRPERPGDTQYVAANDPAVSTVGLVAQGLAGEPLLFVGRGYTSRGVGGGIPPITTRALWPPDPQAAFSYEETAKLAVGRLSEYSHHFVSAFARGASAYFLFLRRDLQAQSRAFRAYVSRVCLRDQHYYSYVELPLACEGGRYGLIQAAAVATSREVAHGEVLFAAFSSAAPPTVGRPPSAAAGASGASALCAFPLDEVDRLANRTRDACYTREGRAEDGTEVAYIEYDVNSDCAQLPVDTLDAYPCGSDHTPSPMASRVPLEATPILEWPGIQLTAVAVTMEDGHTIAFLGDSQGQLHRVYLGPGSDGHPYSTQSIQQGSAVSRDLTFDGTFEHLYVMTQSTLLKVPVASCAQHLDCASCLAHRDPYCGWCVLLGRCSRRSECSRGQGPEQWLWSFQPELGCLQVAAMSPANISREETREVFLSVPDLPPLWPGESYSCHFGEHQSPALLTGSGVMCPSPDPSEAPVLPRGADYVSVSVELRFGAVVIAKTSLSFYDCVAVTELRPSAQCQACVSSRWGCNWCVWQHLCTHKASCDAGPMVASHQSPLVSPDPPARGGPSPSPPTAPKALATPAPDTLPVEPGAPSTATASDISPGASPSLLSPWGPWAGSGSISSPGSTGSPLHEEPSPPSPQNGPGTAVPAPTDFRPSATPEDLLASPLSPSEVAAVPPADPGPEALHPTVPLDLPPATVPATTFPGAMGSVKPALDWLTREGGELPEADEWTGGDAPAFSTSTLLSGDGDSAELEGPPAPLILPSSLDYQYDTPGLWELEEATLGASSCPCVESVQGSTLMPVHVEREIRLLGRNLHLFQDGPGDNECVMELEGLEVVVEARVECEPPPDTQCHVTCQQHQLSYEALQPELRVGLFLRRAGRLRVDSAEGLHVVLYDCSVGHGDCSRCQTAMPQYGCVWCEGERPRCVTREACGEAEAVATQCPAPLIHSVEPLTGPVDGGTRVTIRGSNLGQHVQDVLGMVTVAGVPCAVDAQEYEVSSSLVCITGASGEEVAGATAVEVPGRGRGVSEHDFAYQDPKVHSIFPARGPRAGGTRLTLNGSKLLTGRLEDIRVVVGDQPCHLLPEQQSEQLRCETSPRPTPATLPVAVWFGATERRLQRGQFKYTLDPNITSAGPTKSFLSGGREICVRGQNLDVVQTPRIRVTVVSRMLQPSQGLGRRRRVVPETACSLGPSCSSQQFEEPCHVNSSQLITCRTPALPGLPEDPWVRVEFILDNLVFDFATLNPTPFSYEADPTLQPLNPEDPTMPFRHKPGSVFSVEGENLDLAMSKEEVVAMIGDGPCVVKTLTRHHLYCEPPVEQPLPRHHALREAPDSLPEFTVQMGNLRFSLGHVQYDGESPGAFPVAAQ
In words: sandwich ELISA type test: plexin B1-PA on plate, Fab supernatant, detection with Nrp1ec-AP, A405. On the technique in general: ELISA stands for enzyme-linked immunosorbent assay.

Assay [2] deals with T2, Met-PA (extracellular region of a human Met receptor with a PA tag at the C terminal) (human, UniProt P08581 25-932).
T2 construct: extracellular domain; Soluble receptor fragment expressed in Expi293F cells; also called second target antigen; not shown: PA tag
In words: sandwich ELISA type test: Met-PA on plate, Fab supernatant, detection with Nrp1ec-AP, A405.

T2 sequence (P08581 25-932): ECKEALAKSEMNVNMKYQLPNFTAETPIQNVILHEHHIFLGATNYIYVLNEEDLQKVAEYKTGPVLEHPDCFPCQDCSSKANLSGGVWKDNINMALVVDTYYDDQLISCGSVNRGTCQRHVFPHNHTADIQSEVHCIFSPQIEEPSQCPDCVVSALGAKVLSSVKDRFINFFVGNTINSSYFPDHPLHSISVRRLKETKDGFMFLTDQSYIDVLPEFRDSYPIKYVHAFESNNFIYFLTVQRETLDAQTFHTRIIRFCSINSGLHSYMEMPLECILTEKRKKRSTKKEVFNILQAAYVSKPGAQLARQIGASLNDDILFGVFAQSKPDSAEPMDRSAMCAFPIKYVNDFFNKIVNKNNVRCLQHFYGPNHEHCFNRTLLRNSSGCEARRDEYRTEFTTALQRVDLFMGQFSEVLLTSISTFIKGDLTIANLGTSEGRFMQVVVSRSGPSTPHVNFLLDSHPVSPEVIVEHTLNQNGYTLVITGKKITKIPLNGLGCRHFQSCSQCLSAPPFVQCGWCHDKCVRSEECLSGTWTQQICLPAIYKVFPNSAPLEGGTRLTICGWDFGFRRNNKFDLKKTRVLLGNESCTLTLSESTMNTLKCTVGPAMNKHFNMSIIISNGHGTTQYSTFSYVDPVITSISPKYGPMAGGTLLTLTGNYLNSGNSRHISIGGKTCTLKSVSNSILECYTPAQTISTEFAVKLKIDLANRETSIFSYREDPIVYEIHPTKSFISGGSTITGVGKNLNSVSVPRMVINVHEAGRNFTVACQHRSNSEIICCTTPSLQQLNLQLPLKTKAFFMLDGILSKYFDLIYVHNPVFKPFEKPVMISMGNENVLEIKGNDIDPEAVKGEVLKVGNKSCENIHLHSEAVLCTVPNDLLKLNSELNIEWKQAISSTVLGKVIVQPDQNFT

B1: N1_Fab having no peptide inserted therein (Fab, V domains shown)
VH: EVQLVESGGGLVQPGGSLRLSCAASGFSFSSEPISWVRQAPGKGLEWVSSITGKNGYTYYADSVKGRFTISADTSKNTAYLQMNSLRAEDTAVYYCARWGKKVYGMDVWGQGTLVTVSS
VL: DIQMTQSPSSLSASVGDRVTITCRASQSISSYLAWYQQKPGKAPKLLIYGASSRASGVPSRFSGSGSGTDFTLTISSLQPEDFATYYCQQYMSVPITFGQGTKVEIKR
notes: Unfused control Fab, used as culture supernatant; also called Fab of human IgG1 monoclonal antibody N1 (clone name YW64.3) against neuropilin 1
For B1, the binding result in assay [1] and in assay [2] was “no binding” each time.
